Values belong to the molecule of their own block, whether it stands above or below them.
Experiments:
HA-tagged GATA4 [1] = molecular target: HA-tagged GATA4 (UniProt P43694)
[2] = molecular target: HA-tagged serum response factor (SRF) (UniProt P11831)
HA-tagged GATA6 = HA-tagged GATA6 (UniProt Q92908); assay: co-IP; nuclear extracts (200 ug protein) of HEK293 cells transiently overexpressing both proteins; anti-HA on Dynabeads Protein G, 2 h at RT, washed three times with PBS; blot with anti-Flag, then stripped and probed with anti-HA
[3] = molecular target: HA-tagged serum response factor (SRF) (UniProt P11831); assay: as above
HA-tagged GATA4 [4] = molecular target: HA-tagged GATA4 (UniProt P43694); assay: as above
HA-tagged TBX5 [5] = molecular target: HA-tagged TBX5 (UniProt Q99593); assay: as above
HA-tagged TBX5 [6] = molecular target: T1, HA-tagged TBX5 (UniProt Q99593 1-518); assay: cell-based or functional assay
T1 sequence (looked up): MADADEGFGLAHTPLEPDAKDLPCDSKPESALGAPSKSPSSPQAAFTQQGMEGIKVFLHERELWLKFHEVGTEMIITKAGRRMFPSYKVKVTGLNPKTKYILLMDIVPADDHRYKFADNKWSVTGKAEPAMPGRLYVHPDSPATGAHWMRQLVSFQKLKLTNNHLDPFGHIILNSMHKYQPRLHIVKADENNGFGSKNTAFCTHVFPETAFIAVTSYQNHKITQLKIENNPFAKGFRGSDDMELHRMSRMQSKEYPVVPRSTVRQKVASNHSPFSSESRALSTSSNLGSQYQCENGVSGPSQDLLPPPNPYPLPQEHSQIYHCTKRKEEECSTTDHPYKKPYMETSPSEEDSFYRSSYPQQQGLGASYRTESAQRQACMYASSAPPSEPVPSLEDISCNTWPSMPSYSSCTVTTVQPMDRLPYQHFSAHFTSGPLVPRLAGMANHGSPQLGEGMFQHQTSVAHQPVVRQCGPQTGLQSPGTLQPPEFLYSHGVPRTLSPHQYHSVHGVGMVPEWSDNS

[7] = molecular target: T2, HA-tagged serum response factor (SRF) (UniProt P11831 1-508); assay: cell-based or functional assay
T2 sequence (looked up): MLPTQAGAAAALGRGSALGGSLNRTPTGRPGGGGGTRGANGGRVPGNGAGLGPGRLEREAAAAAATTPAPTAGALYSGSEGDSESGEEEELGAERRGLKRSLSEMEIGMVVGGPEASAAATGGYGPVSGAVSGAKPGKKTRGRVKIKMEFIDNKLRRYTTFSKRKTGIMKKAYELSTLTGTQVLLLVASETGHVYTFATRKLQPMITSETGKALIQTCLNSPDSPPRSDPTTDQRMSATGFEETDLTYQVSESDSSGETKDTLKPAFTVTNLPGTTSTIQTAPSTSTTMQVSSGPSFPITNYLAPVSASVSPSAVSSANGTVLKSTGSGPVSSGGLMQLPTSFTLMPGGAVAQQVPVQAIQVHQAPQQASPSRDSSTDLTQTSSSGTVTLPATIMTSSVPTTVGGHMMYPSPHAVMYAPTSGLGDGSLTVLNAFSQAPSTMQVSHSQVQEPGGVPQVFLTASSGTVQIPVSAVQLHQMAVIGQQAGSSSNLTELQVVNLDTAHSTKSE

HA-tagged GATA4 [8] = molecular target: HA-tagged GATA4 (UniProt P43694 1-442); assay: cell-based or functional assay
Sequence of HA-tagged GATA4 (UniProt P43694 1-442) (P43694 whole entry): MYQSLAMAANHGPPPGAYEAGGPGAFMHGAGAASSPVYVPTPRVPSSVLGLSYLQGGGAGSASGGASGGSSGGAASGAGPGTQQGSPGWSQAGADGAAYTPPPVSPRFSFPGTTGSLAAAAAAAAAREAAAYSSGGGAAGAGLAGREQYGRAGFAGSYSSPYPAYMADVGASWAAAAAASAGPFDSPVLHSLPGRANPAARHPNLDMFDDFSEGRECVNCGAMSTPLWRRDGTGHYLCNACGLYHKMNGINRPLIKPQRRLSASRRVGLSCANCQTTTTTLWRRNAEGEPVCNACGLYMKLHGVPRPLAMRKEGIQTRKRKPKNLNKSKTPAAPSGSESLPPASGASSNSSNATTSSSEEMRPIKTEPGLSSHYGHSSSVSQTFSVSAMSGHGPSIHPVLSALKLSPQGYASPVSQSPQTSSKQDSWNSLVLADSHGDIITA

Sequence of HA-tagged GATA4 (UniProt P43694) (P43694 whole entry): as above
Sequence of HA-tagged GATA6 (Q92908 whole entry): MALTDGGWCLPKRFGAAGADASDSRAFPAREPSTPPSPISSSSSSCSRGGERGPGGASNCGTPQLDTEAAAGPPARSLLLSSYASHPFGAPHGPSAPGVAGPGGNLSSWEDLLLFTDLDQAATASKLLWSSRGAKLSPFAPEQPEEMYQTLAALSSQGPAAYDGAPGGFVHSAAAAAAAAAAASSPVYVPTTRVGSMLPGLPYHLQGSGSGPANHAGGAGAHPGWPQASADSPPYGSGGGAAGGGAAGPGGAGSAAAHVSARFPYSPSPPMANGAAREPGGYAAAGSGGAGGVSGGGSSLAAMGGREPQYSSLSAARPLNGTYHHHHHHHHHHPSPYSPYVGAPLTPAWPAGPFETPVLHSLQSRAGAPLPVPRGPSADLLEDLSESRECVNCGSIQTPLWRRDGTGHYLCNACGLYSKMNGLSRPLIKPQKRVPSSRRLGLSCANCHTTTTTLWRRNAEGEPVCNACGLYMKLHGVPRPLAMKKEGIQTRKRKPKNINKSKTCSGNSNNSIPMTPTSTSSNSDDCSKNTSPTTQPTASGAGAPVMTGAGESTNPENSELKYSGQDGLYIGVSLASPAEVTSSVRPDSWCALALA

synergy on the NPPA, VEGF and NOS3 luciferase promoters, co-transfection assays, fold activation (promoter of the number not told); synergy completely lost (HA-tagged GATA4 [1]): 5 fold
percent inhibition of the synergy with SRF over the NPPA-luciferase promoter, co-transfection in HEK293 cells [2]: 50%
percent increase of the co-precipitation against wild-type CSRP1 (HA-tagged GATA6): 15%
percent inhibition of the co-precipitation against wild-type CSRP1 [3]: 82%
percent inhibition of the co-precipitation against wild-type CSRP1 (HA-tagged GATA4 [4]): < 85%
percent decrease of the co-precipitation against wild-type CSRP1 (HA-tagged TBX5 [5]): < 55.3%
Molecule: Flag-tagged p.E154Vfs*99 CSRP1 mutant (from UniProt P21291 1-153) (natural protein)

synergistic activation of the NPPA, VEGF and NOS3 luciferase promoters, co-transfection in HEK293 (CSRP1 400 and 600 ng, TBX5 200 and 400 ng); highest value on the NOS3 promoter (HA-tagged TBX5 [6]): 40 fold
synergistic activation of the NOS3-luciferase promoter, co-transfection in HEK293 cells, fold activation [7]: 14 fold
synergistic activation of the NPPA-luciferase promoter, co-transfection in HEK293 cells, fold activation [7]: 100 fold
synergistic activation of the VEGF-luciferase promoter, co-transfection in HEK293 cells, fold activation [7]: 22.3 fold
synergy on the NPPA, VEGF and NOS3 luciferase promoters, co-transfection assays, fold activation (promoter of the number not told) (HA-tagged GATA4 [8]): 22 fold
B1: Flag-tagged wild type human CSRP1 (natural protein, UniProt P21291 1-193, looked up)
chain: MPNWGGGKKCGVCQKTVYFAEEVQCEGNSFHKSCFLCMVCKKNLDSTTVAVHGEEIYCKSCYGKKYGPKGYGYGQGAGTLSTDKGESLGIKHEEAPGHRPTTNPNASKFAQKIGGSERCPRCSQAVYAAEKVIGAGKSWHKACFRCAKCGKGLESTTLADKDGEIYCKGCYAKNFGPKGFGFGQGAGALVHSE
